The source of these data is patent US20110105394A1 (Novo Nordisk, published 2011).

The target of experiment [1] is T1, Amylin 3(a) receptor (human calcitonin receptor (CTa) with RAMP-3) (human) (UniProt P30988).
T1 sequence (looked up) 1: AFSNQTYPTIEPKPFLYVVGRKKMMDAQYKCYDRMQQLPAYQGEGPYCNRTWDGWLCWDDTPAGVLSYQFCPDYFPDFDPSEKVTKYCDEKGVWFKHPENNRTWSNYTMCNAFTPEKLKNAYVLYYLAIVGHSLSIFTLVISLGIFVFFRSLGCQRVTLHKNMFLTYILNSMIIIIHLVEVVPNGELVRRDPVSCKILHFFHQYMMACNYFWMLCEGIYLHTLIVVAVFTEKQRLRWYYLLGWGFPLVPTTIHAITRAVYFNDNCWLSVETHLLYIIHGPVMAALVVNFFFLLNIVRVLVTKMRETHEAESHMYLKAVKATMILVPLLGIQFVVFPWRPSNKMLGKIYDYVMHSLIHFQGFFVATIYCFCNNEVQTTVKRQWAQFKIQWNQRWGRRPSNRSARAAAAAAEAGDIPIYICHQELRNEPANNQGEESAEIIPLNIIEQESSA
T1 sequence (looked up) 2: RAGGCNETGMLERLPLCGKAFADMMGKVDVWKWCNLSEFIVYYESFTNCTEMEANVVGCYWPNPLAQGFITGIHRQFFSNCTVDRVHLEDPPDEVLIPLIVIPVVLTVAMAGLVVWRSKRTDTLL
Nature of the experiment: cell-based or functional assay.

In experiment [2] the target is T2, Amylin 3(a) receptor (human calcitonin receptor (CTa) with RAMP-3) (human, UniProt P30988 25-474; O60896 24-148, limits assumed).
T2 sequence (looked up) 1: T1 sequence (looked up) 1
T2 sequence (looked up) 2: T1 sequence (looked up) 2
Nature of the experiment: cell-based or functional assay.

*1 amine or outer side, *2 acyl side, *3 side chain or, on linkers, in order; H or OH if unused. Bridges are numbered along the chain shown (N, C = ends). The star is where a group is joined. C20 diacid = O=C(O)CCCCCCCCCCCCCCCCCCC(=O)*; γGlu = O=C(O)[C@H](CCC(=O)[*:2])N[*:1]

B1: N-alpha-(19-carboxynonadecanoyl)-Glu-Glu-Arg-[Glu1,Glu14,His17,Glu31]-pramlintide (peptide)
peptide: {C20 diacid}-EERECNTATCATQRLAEFLHHSSNNFGPILPPTEVGSNTY-NH2
modifications: disulfide 5-10
SMILES: CC[C@H](C)[C@H](NC(=O)[C@@H]1CCCN1C(=O)CNC(=O)[C@H](Cc1ccccc1)NC(=O)[C@H](CC(N)=O)NC(=O)[C@H](CC(N)=O)NC(=O)[C@H](CO)NC(=O)[C@H](CO)NC(=O)[C@H](Cc1c[nH]cn1)NC(=O)[C@H](Cc1c[nH]cn1)NC(=O)[C@H](CC(C)C)NC(=O)[C@H](Cc1ccccc1)NC(=O)[C@H](CCC(=O)O)NC(=O)[C@H](C)NC(=O)[C@H](CC(C)C)NC(=O)[C@H](CCCNC(=N)N)NC(=O)[C@H](CCC(N)=O)NC(=O)[C@@H](NC(=O)[C@H](C)NC(=O)[C@@H]1CSSC[C@H](NC(=O)[C@H](CCC(=O)O)NC(=O)[C@H](CCCNC(=N)N)NC(=O)[C@H](CCC(=O)O)NC(=O)[C@H](CCC(=O)O)NC(=O)CCCCCCCCCCCCCCCCCCC(=O)O)C(=O)N[C@@H](CC(N)=O)C(=O)N[C@@H]([C@@H](C)O)C(=O)N[C@@H](C)C(=O)N[C@@H]([C@@H](C)O)C(=O)N1)[C@@H](C)O)C(=O)N[C@@H](CC(C)C)C(=O)N1CCC[C@H]1C(=O)N1CCC[C@H]1C(=O)N[C@H](C(=O)N[C@@H](CCC(=O)O)C(=O)N[C@H](C(=O)NCC(=O)N[C@@H](CO)C(=O)N[C@@H](CC(N)=O)C(=O)N[C@H](C(=O)N[C@@H](Cc1ccc(O)cc1)C(N)=O)[C@@H](C)O)C(C)C)[C@@H](C)O
For the molecule B1, in experiment [1], the Potency Luciferase is 0.9 nM.

B2: N-alpha-[(S)-4-Carboxy-4-(19-carboxynonadecanoylamino)butyryl]-Glu-His-His-[Arg1,Arg17]-pramlintide (peptide)
peptide: {C20 diacid-γGlu}-EHHRCNTATCATQRLANFLRHSSNNFGPILPPTNVGSNTY-NH2
modifications: disulfide 5-10
SMILES: CC[C@H](C)[C@H](NC(=O)[C@@H]1CCCN1C(=O)CNC(=O)[C@H](Cc1ccccc1)NC(=O)[C@H](CC(N)=O)NC(=O)[C@H](CC(N)=O)NC(=O)[C@H](CO)NC(=O)[C@H](CO)NC(=O)[C@H](Cc1c[nH]cn1)NC(=O)[C@H](CCCNC(=N)N)NC(=O)[C@H](CC(C)C)NC(=O)[C@H](Cc1ccccc1)NC(=O)[C@H](CC(N)=O)NC(=O)[C@H](C)NC(=O)[C@H](CC(C)C)NC(=O)[C@H](CCCNC(=N)N)NC(=O)[C@H](CCC(N)=O)NC(=O)[C@@H](NC(=O)[C@H](C)NC(=O)[C@@H]1CSSC[C@H](NC(=O)[C@H](CCCNC(=N)N)NC(=O)[C@H](Cc2c[nH]cn2)NC(=O)[C@H](Cc2c[nH]cn2)NC(=O)[C@H](CCC(=O)O)NC(=O)CC[C@H](NC(=O)CCCCCCCCCCCCCCCCCCC(=O)O)C(=O)O)C(=O)N[C@@H](CC(N)=O)C(=O)N[C@@H]([C@@H](C)O)C(=O)N[C@@H](C)C(=O)N[C@@H]([C@@H](C)O)C(=O)N1)[C@@H](C)O)C(=O)N[C@@H](CC(C)C)C(=O)N1CCC[C@H]1C(=O)N1CCC[C@H]1C(=O)N[C@H](C(=O)N[C@@H](CC(N)=O)C(=O)N[C@H](C(=O)NCC(=O)N[C@@H](CO)C(=O)N[C@@H](CC(N)=O)C(=O)N[C@H](C(=O)N[C@@H](Cc1ccc(O)cc1)C(N)=O)[C@@H](C)O)C(C)C)[C@@H](C)O
On to B2, for which, in experiment [1], the Potency Luciferase worked out at 0.2 nM.

B3: N-alpha-[(S)-4-Carboxy-4-(19-carboxynonadecanoylamino)butyryl]-Glu-His-Arg-[Arg1,His17]-pramlintide (peptide)
peptide: {C20 diacid-γGlu}-EHRRCNTATCATQRLANFLHHSSNNFGPILPPTNVGSNTY-NH2
modifications: disulfide 5-10
SMILES: CC[C@H](C)[C@H](NC(=O)[C@@H]1CCCN1C(=O)CNC(=O)[C@H](Cc1ccccc1)NC(=O)[C@H](CC(N)=O)NC(=O)[C@H](CC(N)=O)NC(=O)[C@H](CO)NC(=O)[C@H](CO)NC(=O)[C@H](Cc1c[nH]cn1)NC(=O)[C@H](Cc1c[nH]cn1)NC(=O)[C@H](CC(C)C)NC(=O)[C@H](Cc1ccccc1)NC(=O)[C@H](CC(N)=O)NC(=O)[C@H](C)NC(=O)[C@H](CC(C)C)NC(=O)[C@H](CCCNC(=N)N)NC(=O)[C@H](CCC(N)=O)NC(=O)[C@@H](NC(=O)[C@H](C)NC(=O)[C@@H]1CSSC[C@H](NC(=O)[C@H](CCCNC(=N)N)NC(=O)[C@H](CCCNC(=N)N)NC(=O)[C@H](Cc2c[nH]cn2)NC(=O)[C@H](CCC(=O)O)NC(=O)CC[C@H](NC(=O)CCCCCCCCCCCCCCCCCCC(=O)O)C(=O)O)C(=O)N[C@@H](CC(N)=O)C(=O)N[C@@H]([C@@H](C)O)C(=O)N[C@@H](C)C(=O)N[C@@H]([C@@H](C)O)C(=O)N1)[C@@H](C)O)C(=O)N[C@@H](CC(C)C)C(=O)N1CCC[C@H]1C(=O)N1CCC[C@H]1C(=O)N[C@H](C(=O)N[C@@H](CC(N)=O)C(=O)N[C@H](C(=O)NCC(=O)N[C@@H](CO)C(=O)N[C@@H](CC(N)=O)C(=O)N[C@H](C(=O)N[C@@H](Cc1ccc(O)cc1)C(N)=O)[C@@H](C)O)C(C)C)[C@@H](C)O
For B3, the Potency Luciferase in experiment [1] worked out at 0.2 nM.

B4: N-alpha-[19-carboxynonadecanoyl]-Glu-Lys-[Arg1,His17]-pramlintide (peptide)
peptide: {C20 diacid}-EKRCNTATCATQRLANFLHHSSNNFGPILPPTNVGSNTY-NH2
modifications: disulfide 4-9
SMILES: CC[C@H](C)[C@H](NC(=O)[C@@H]1CCCN1C(=O)CNC(=O)[C@H](Cc1ccccc1)NC(=O)[C@H](CC(N)=O)NC(=O)[C@H](CC(N)=O)NC(=O)[C@H](CO)NC(=O)[C@H](CO)NC(=O)[C@H](Cc1c[nH]cn1)NC(=O)[C@H](Cc1c[nH]cn1)NC(=O)[C@H](CC(C)C)NC(=O)[C@H](Cc1ccccc1)NC(=O)[C@H](CC(N)=O)NC(=O)[C@H](C)NC(=O)[C@H](CC(C)C)NC(=O)[C@H](CCCNC(=N)N)NC(=O)[C@H](CCC(N)=O)NC(=O)[C@@H](NC(=O)[C@H](C)NC(=O)[C@@H]1CSSC[C@H](NC(=O)[C@H](CCCNC(=N)N)NC(=O)[C@H](CCCCN)NC(=O)[C@H](CCC(=O)O)NC(=O)CCCCCCCCCCCCCCCCCCC(=O)O)C(=O)N[C@@H](CC(N)=O)C(=O)N[C@@H]([C@@H](C)O)C(=O)N[C@@H](C)C(=O)N[C@@H]([C@@H](C)O)C(=O)N1)[C@@H](C)O)C(=O)N[C@@H](CC(C)C)C(=O)N1CCC[C@H]1C(=O)N1CCC[C@H]1C(=O)N[C@H](C(=O)N[C@@H](CC(N)=O)C(=O)N[C@H](C(=O)NCC(=O)N[C@@H](CO)C(=O)N[C@@H](CC(N)=O)C(=O)N[C@H](C(=O)N[C@@H](Cc1ccc(O)cc1)C(N)=O)[C@@H](C)O)C(C)C)[C@@H](C)O
Take B4: the “Potency Luciferase” value in experiment [2] amounted to 0.07 nM.

B5: N-alpha-[(S)-4-Carboxy-4-(19-carboxynonadecanoylamino)butyryl]-Glu-His-His-[His1,His17]-pramlintide (peptide)
peptide: {C20 diacid-γGlu}-EHHHCNTATCATQRLANFLHHSSNNFGPILPPTNVGSNTY-NH2
modifications: disulfide 5-10
SMILES: CC[C@H](C)[C@H](NC(=O)[C@@H]1CCCN1C(=O)CNC(=O)[C@H](Cc1ccccc1)NC(=O)[C@H](CC(N)=O)NC(=O)[C@H](CC(N)=O)NC(=O)[C@H](CO)NC(=O)[C@H](CO)NC(=O)[C@H](Cc1c[nH]cn1)NC(=O)[C@H](Cc1c[nH]cn1)NC(=O)[C@H](CC(C)C)NC(=O)[C@H](Cc1ccccc1)NC(=O)[C@H](CC(N)=O)NC(=O)[C@H](C)NC(=O)[C@H](CC(C)C)NC(=O)[C@H](CCCNC(=N)N)NC(=O)[C@H](CCC(N)=O)NC(=O)[C@@H](NC(=O)[C@H](C)NC(=O)[C@@H]1CSSC[C@H](NC(=O)[C@H](Cc2c[nH]cn2)NC(=O)[C@H](Cc2c[nH]cn2)NC(=O)[C@H](Cc2c[nH]cn2)NC(=O)[C@H](CCC(=O)O)NC(=O)CC[C@H](NC(=O)CCCCCCCCCCCCCCCCCCC(=O)O)C(=O)O)C(=O)N[C@@H](CC(N)=O)C(=O)N[C@@H]([C@@H](C)O)C(=O)N[C@@H](C)C(=O)N[C@@H]([C@@H](C)O)C(=O)N1)[C@@H](C)O)C(=O)N[C@@H](CC(C)C)C(=O)N1CCC[C@H]1C(=O)N1CCC[C@H]1C(=O)N[C@H](C(=O)N[C@@H](CC(N)=O)C(=O)N[C@H](C(=O)NCC(=O)N[C@@H](CO)C(=O)N[C@@H](CC(N)=O)C(=O)N[C@H](C(=O)N[C@@H](Cc1ccc(O)cc1)C(N)=O)[C@@H](C)O)C(C)C)[C@@H](C)O
Regarding B5, the Potency Luciferase in experiment [1] worked out at 0.1 nM.

B6: N-alpha-[19-carboxynonadecanoyl]-Glu-Lys-Arg-[His17]-pramlintide (peptide)
peptide: {C20 diacid}-EKRKCNTATCATQRLANFLHHSSNNFGPILPPTNVGSNTY-NH2
modifications: disulfide 5-10
SMILES: CC[C@H](C)[C@H](NC(=O)[C@@H]1CCCN1C(=O)CNC(=O)[C@H](Cc1ccccc1)NC(=O)[C@H](CC(N)=O)NC(=O)[C@H](CC(N)=O)NC(=O)[C@H](CO)NC(=O)[C@H](CO)NC(=O)[C@H](Cc1c[nH]cn1)NC(=O)[C@H](Cc1c[nH]cn1)NC(=O)[C@H](CC(C)C)NC(=O)[C@H](Cc1ccccc1)NC(=O)[C@H](CC(N)=O)NC(=O)[C@H](C)NC(=O)[C@H](CC(C)C)NC(=O)[C@H](CCCNC(=N)N)NC(=O)[C@H](CCC(N)=O)NC(=O)[C@@H](NC(=O)[C@H](C)NC(=O)[C@@H]1CSSC[C@H](NC(=O)[C@H](CCCCN)NC(=O)[C@H](CCCNC(=N)N)NC(=O)[C@H](CCCCN)NC(=O)[C@H](CCC(=O)O)NC(=O)CCCCCCCCCCCCCCCCCCC(=O)O)C(=O)N[C@@H](CC(N)=O)C(=O)N[C@@H]([C@@H](C)O)C(=O)N[C@@H](C)C(=O)N[C@@H]([C@@H](C)O)C(=O)N1)[C@@H](C)O)C(=O)N[C@@H](CC(C)C)C(=O)N1CCC[C@H]1C(=O)N1CCC[C@H]1C(=O)N[C@H](C(=O)N[C@@H](CC(N)=O)C(=O)N[C@H](C(=O)NCC(=O)N[C@@H](CO)C(=O)N[C@@H](CC(N)=O)C(=O)N[C@H](C(=O)N[C@@H](Cc1ccc(O)cc1)C(N)=O)[C@@H](C)O)C(C)C)[C@@H](C)O
For B6, in experiment [2], the “Potency Luciferase” value was 0.06 nM.
